Data set [1] deals with EjRAV2 (Eriobotrya japonica, UniProt A0A482LTM5 1-406). Put plainly: EMSA; Beyotime EMSA/Gel Shift kit, chemiluminescent biotin detection; buffer, salt, pH and temperature not stated. Conditions: protein: recombinant; tags: 6xHis (pET28a); label: biotin (ends); blunt. A general note: In EMSA bound probe runs differently from free probe, usually more slowly.
Data set [2] addresses T1, EjRAV1 (Eriobotrya japonica, UniProt A0A482LZ61 1-403). Described as above. The note with it: protein: recombinant; tags: 6xHis (pET28a); label: biotin (ends); blunt.
The target of data set [3] is T1, EjRAV1. Put plainly: competition; excess unlabeled vs biotin P1; Beyotime EMSA/Gel Shift kit, chemiluminescent biotin detection; buffer, salt, pH and temperature not stated. Conditions: protein: recombinant; tags: 6xHis (pET28a); blunt.

T1 sequence (A0A482LZ61 entry or part of it): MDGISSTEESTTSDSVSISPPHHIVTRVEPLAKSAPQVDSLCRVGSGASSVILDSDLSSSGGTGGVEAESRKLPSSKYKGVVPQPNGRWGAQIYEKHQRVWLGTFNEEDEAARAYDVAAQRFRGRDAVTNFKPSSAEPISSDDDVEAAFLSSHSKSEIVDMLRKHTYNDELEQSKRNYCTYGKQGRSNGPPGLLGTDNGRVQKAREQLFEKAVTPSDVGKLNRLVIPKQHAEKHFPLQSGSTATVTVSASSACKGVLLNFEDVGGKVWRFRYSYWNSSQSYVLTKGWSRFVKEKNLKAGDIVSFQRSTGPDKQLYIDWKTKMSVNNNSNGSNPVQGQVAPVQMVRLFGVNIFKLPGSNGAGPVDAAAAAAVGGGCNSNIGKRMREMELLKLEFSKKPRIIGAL
Sequence of EjRAV2 (A0A482LTM5 entry or part of it): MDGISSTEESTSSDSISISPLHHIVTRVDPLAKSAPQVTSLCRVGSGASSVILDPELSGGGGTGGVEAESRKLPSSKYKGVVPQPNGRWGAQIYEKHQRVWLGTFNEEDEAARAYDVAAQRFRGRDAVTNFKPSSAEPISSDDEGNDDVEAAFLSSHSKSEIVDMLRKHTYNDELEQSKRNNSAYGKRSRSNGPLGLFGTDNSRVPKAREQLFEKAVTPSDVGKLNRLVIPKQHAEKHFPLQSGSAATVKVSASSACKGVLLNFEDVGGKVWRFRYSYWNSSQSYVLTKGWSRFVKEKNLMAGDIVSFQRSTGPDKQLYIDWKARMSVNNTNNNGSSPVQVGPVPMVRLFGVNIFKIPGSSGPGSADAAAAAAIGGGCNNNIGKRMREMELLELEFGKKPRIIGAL

B1: EjFT1-P1 (dsDNA)
DNA 1: TGGCAATATGACATGCAATGCAACAGAATATAAATAGTTGATTTTG
DNA 2: CAAAATCAACTATTTATATTCTGTTGCATTGCATGTCATATTGCCA
In the case of B1, the binding result is “no binding” in data set [1] and “binds” in data set [2].

B2: EjFT1-P1 unlabeled (dsDNA)
DNA 1: B1 DNA 1
DNA 2: B1 DNA 2
On to B2, for which the binding result in data set [3] was “binds”.
